The target in experiment [1] is T1, CD3 on T cells (Jurkat T cells; PBMC-T cells).
T1 construct: whole, on cells; the target is inferred from the anti-CD3 arm of the constructs
The experiment can be described thus: flow cytometry on Jurkat T cells. The procedure: Jurkat cells (a medium containing 10% FBS) were cultured. 2×10⁵ cells were washed by precooled PBS for 3 times, and blocked by 2% FBS (soluble to PBS). Purified IgFD-11, IgFD-8, IgFD-25, IgFD-26, IgFD-31 or IgFD-36 (aEGFR expressed in a laboratory as a control) were added and incubated for 2 h at 4° C. (cells were gently mixed during incubation), followed by 2% FBS(in PBS) wash. The cells were incubated by FITC anti-human IgGFc (KPL, Inc., MD) for 1 h at 4° C. and subjected to flow cytometry analysis after washing with 2% FBS(in PBS).

Experiment [2] deals with T2, EGFR on F98-EGFR cells (UniProt P00533 25-1210, limits assumed).
T2 construct: whole, on cells
As to the kind of experiment: flow cytometry on F98-EGFR cells. The procedure: F98-EGFR cells (a DMEM containing 10% FBS, 200 μg/ml G418) were cultured. 2×10⁵ cells were washed by precooled PBS for 3 times, and blocked by 2% FBS (soluble to PBS). IgFD-8, IgFD-9, IgFD-10, IgFD-11, IgFD-18, IgFD-19, IgFD-25, IgFD-26 or IgFD-31 (aEGFR expressed in a laboratory as a control) was added and incubated for 2 h at 4° C. (cells were gently mixed during incubation), unbounded antibodies were washed by 2% FBS (soluble to PBS), and then the remaining cells were incubated by FITC anti-human IgGFc(KPL, Inc., MD) for 1 h at 4° C., and washed by 2% FBS (soluble to PBS) for flow cytometry analysis. As shown in FIG. 7 and Table 4, the anti-CD3/anti-EGFR heterodimers in different forms of fusion could bind to EGFR on F98-EGFR cells, and there was no significant difference in the binding capacity of different heterodimers to F98-EGFR.

Experiment [3] addresses T2, EGFR on F98-EGFR cells. The experiment can be described thus: cell-based or functional assay.
Experiment [4] deals with T1, CD3 on T cells (Jurkat T cells; PBMC-T …). The experiment can be described thus: flow cytometry on Jurkat T cells; protein purified on Protein A resin.
Experiment [5] shares this target. The experiment can be described thus: flow cytometry on Jurkat T cells; protein purified on CH1 resin.
Experiment [6] has as its target T2, EGFR on F98-EGFR cells. The experiment can be described thus: flow cytometry on F98-EGFR cells; protein purified on Protein A resin.
Experiment [7] deals with T2, EGFR on F98-EGFR cells. As to the kind of experiment: flow cytometry on F98-EGFR cells; protein purified on CH1 resin.

T1 sequence (P07766 23-207): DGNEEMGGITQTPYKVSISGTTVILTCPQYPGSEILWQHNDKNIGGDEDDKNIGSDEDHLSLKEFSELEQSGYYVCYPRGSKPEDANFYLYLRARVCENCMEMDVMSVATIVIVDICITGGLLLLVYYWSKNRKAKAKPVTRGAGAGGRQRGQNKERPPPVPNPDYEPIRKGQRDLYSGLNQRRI

B1: IgFD-31(anti-CD3/EGFR) (bispecific antibody)
chain 1: EVQLVESGGGLVQPGGSLRLSCAASGFTFNTYAMNWVRQAPGKGLEWVARIRSKYNNYATYYADSVKDRFTISRDDSKNTLYLQMNSLRAEDTAVYYCVRHGNFGNSYVSWFAYWGQGTLVTVSSASTKGPSVFPLAPSSKSTSGGTAALGCLVKDYFPEPVTVSWNSGALTSGVHTFPAVLQSSGLYSLSSVVTVPSSSLGTQTYICNVNHKPSNTKVDKKVEPKSCGGSGAKLAALKAKLAALKGGGGSDKTHTCPPCPAPPVAGPSVFLFPPKPKDTLMISRTPEVTCVVVDVSHEDPEVKFNWYVDGVEVHNAKTKPREEQYNSTYRVVSVLTVLHQDWLNGKEYKCKVSNKGLPSSIEKTISKAKGQPREPQVYTLPPSRDELTKNQVSLTCLVKGFYPSDIAVEWESNGQPENNYKTTPPVLDSDGSFFLYSKLTVDKSRWQQGNVFSCSVMHEALHNHYTQKSLSLSPGK
chain 2: QAVVTQEPSLTVSPGGTVTLTCRSSTGAVTTSNYANWVQQKPDHLFRGLIGGTNKRAPGTPARFSGSLLGDKAALTISGAQPEDEAEYYCALWYSNLWVFGGGTKLTVLKRTVAAPSVFIFPPSDEQLKSGTASVVCLLNNFYPREAKVQWKVDNALQSGNSQESVTEQDSKDSTYSLSSTLTLSKADYEKHKVYACEVTHQGLSSPVTKSFNRGECGGGGSELAALEAELAALEAGGSGDKTHTCPPCPAPPVAGPSVFLFPPKPKDTLMISRTPEVTCVVVDVSHEDPEVKFNWYVDGVEVHNAKTKPREEQYNSTYRVVSVLTVLHQDWLNGKEYKCKVSNKGLPSSIEKTISKAKGQPREPQVYTLPPSRDELTKNQVSLTCLVKGFYPSDIAVEWESNGQPENNYKTTPPVLDSDGSFFLYSKLTVDKSRWQQGNVFSCSVMHEALHNHYTQKSLSLSPGKGGSGGSGGGGSGGGGSDIQMTQSPSSLSASVGDRVTITCQASQDISNYLNWYQQKPGKAPKLLIYDASNLETGVPSRFSGSGSGTDFTFTISSLQPEDIATYFCQHFDHLPLAFGGGTKVEIKGGGGSGGGGSGGGGSQVQLQESGPGLVKPSETLSLTCTVSGGSVSSGDYYWTWIRQSPGKGLEWIGHIYYSGNTNYNPSLKSRLTISIDTSKTQFSLKLSSVTAADTAIYYCVRDRVTGAFDIWGQGTMVTVSS
B1: the Kd in experiment [1] was 4.16 nM; in the experiment with EGFR on F98-EGFR cells [2], 5.47 nM.

B2: IgFD-25(anti-CD3/EGFR) (bispecific antibody, human IgG1, kappa)
chain 1: EVQLVESGGGLVQPGGSLRLSCAASGFTFNTYAMNWVRQAPGKGLEWVARIRSKYNNYATYYADSVKDRFTISRDDSKNTLYLQMNSLRAEDTAVYYCVRHGNFGNSYVSWFAYWGQGTLVTVSSASTKGPSVFPLAPSSKSTSGGTAALGCLVKDYFPEPVTVSWNSGALTSGVHTFPAVLQSSGLYSLSSVVTVPSSSLGTQTYICNVNHKPSNTKVDKKVEPKSCDKTHTCPPCPAPPVAGPSVFLFPPKPKDTLMISRTPEVTCVVVDVSHEDPEVKFNWYVDGVEVHNAKTKPREEQYNSTYRVVSVLTVLHQDWLNGKEYKCKVSNKGLPSSIEKTISKAKGQPREPQVYTLPPCRDELTKNQVSLWCLVKGFYPSDIAVEWESNGQPENNYKTTPPVLDSDGSFFLYSKLTVDKSRWQQGNVFSCSVMHEALHNHYTQKSLSLSPGK
chain 2: QAVVTQEPSLTVSPGGTVTLTCRSSTGAVTTSNYANWVQQKPDHLFRGLIGGTNKRAPGTPARFSGSLLGDKAALTISGAQPEDEAEYYCALWYSNLWVFGGGTKLTVLKRTVAAPSVFIFPPSDEQLKSGTASVVCLLNNFYPREAKVQWKVDNALQSGNSQESVTEQDSKDSTYSLSSTLTLSKADYEKHKVYACEVTHQGLSSPVTKSFNRGECDKTHTCPPCPAPPVAGPSVFLFPPKPKDTLMISRTPEVTCVVVDVSHEDPEVKFNWYVDGVEVHNAKTKPREEQYNSTYRVVSVLTVLHQDWLNGKEYKCKVSNKGLPSSIEKTISKAKGQPREPQVCTLPPSRDELTKNQVSLSCAVKGFYPSDIAVEWESNGQPENNYKTTPPVLDSDGSFFLVSKLTVDKSRWQQGNVFSCSVMHEALHNHYTQKSLSLSPGKGGSGGSGGGGSGGGGSDIQMTQSPSSLSASVGDRVTITCQASQDISNYLNWYQQKPGKAPKLLIYDASNLETGVPSRFSGSGSGTDFTFTISSLQPEDIATYFCQHFDHLPLAFGGGTKVEIKGGGGSGGGGSGGGGSQVQLQESGPGLVKPSETLSLTCTVSGGSVSSGDYYWTWIRQSPGKGLEWIGHIYYSGNTNYNPSLKSRLTISIDTSKTQFSLKLSSVTAADTAIYYCVRDRVTGAFDIWGQGTMVTVSS
B2: the Kd in experiment [1] came to 7.72 nM; with EGFR on F98-EGFR cells [2], 1.12 nM. For the same molecule, the “Promotion for the specific killing effect of PBMCs on target cells by heterodimers (EC50, pM); F98-EGFR cells, LDH assay” value with EGFR on F98-EGFR cells [3] turned out to be 11 pM.

B3: IgFD-26(anti-CD3/EGFR) (bispecific antibody, human IgG1, kappa, N297A)
chain 1: not shown
chain 2: QAVVTQEPSLTVSPGGTVTLTCRSSTGAVTTSNYANWVQQKPDHLFRGLIGGTNKRAPGTPARFSGSLLGDKAALTISGAQPEDEAEYYCALWYSNLWVFGGGTKLTVLKRTVAAPSVFIFPPSDEQLKSGTASVVCLLNNFYPREAKVQWKVDNALQSGNSQESVTEQDSKDSTYSLSSTLTLSKADYEKHKVYACEVTHQGLSSPVTKSFNRGECDKTHTCPPCPAPELLGGPSVFLFPPKPKDTLMISRTPEVTCVVVDVSHEDPEVKFNWYVDGVEVHNAKTKPREEQYASTYRVVSVLTVLHQDWLNGKEYKCKVSNKALPAPIEKTISKAKGQPREPQVCTLPPSREEMTKNQVSLSCAVKGFYPSDIAVEWESNGQPENNYKTTPPVLDSDGSFFLVSKLTVDKSRWQQGNVFSCSVMHEALHNHYTQKSLSLSPGKGGSGGSGGGGSGGGGSDIQMTQSPSSLSASVGDRVTITCQASQDISNYLNWYQQKPGKAPKLLIYDASNLETGVPSRFSGSGSGTDFTFTISSLQPEDIATYFCQHFDHLPLAFGGGTKVEIKGGGGSGGGGSGGGGSQVQLQESGPGLVKPSETLSLTCTVSGGSVSSGDYYWTWIRQSPGKGLEWIGHIYYSGNTNYNPSLKSRLTISIDTSKTQFSLKLSSVTAADTAIYYCVRDRVTGAFDIWGQGTMVTVSS
With B3, the Kd was 4.23 nM in experiment [1] and 5.28 nM with EGFR on F98-EGFR cells [2]. Besides, the “Promotion for the specific killing effect of PBMCs on target cells by heterodimers (EC50, pM); F98-EGFR cells, LDH assay” value in the experiment with EGFR on F98-EGFR cells [3] turned out to be 105 pM.

B4: IgFD-30(anti-CD3/EGFR) (bispecific antibody, human IgG1, kappa)
chain 1: EVQLVESGGGLVQPGGSLRLSCAASGFTFNTYAMNWVRQAPGKGLEWVARIRSKYNNYATYYADSVKDRFTISRDDSKNTLYLQMNSLRAEDTAVYYCVRHGNFGNSYVSWFAYWGQGTLVTVSSASTKGPSVFPLAPSSKSTSGGTAALGCLVKDYFPEPVTVSWNSGALTSGVHTFPAVLQSSGLYSLSSVVTVPSSSLGTQTYICNVNHKPSNTKVDKKVEPKSCDKTHTCPPCPAPPVAGPSVFLFPPKPKDTLMISRTPEVTCVVVDVSHEDPEVKFNWYVDGVEVHNAKTKPREEQYNSTYRVVSVLTVLHQDWLNGKEYKCKVSNKGLPSSIEKTISKAKGQPREPQVYTLPPCRDELTKNQVSLWCLVKGFYPSDIAVEWESNGQPENNYKTTPPVLDSDGSFFLYSKLTVDKSRWQQGNVFSCSVMHEALHNHYTQKSLSLSPGKGGSGGSGGGGSGGGGSDIQMTQSPSSLSASVGDRVTITCQASQDISNYLNWYQQKPGKAPKLLIYDASNLETGVPSRFSGSGSGTDFTFTISSLQPEDIATYFCQHFDHLPLAFGGGTKVEIK
chain 2: QAVVTQEPSLTVSPGGTVTLTCRSSTGAVTTSNYANWVQQKPDHLFRGLIGGTNKRAPGTPARFSGSLLGDKAALTISGAQPEDEAEYYCALWYSNLWVFGGGTKLTVLKRTVAAPSVFIFPPSDEQLKSGTASVVCLLNNFYPREAKVQWKVDNALQSGNSQESVTEQDSKDSTYSLSSTLTLSKADYEKHKVYACEVTHQGLSSPVTKSFNRGECDKTHTCPPCPAPPVAGPSVFLFPPKPKDTLMISRTPEVTCVVVDVSHEDPEVKFNWYVDGVEVHNAKTKPREEQYNSTYRVVSVLTVLHQDWLNGKEYKCKVSNKGLPSSIEKTISKAKGQPREPQVCTLPPSRDELTKNQVSLSCAVKGFYPSDIAVEWESNGQPENNYKTTPPVLDSDGSFFLVSKLTVDKSRWQQGNVFSCSVMHEALHNHYTQKSLSLSPGKGGSGGSGGGGSGGGGSQVQLQESGPGLVKPSETLSLTCTVSGGSVSSGDYYWTWIRQSPGKGLEWIGHIYYSGNTNYNPSLKSRLTISIDTSKTQFSLKLSSVTAADTAIYYCVRDRVTGAFDIWGQGTMVTVSS
notes: (ProA)/(CH1) = purification resin; also called IgFD-30(ProA); IgFD-30(CH1)
On to B4, for which the Kd in experiment [4] worked out at 6.74 nM; in experiment [5] it was 7.35 nM; with EGFR on F98-EGFR cells [6] it was 131 nM; in the experiment with EGFR on F98-EGFR cells [7], 86.3 nM. Besides, the “Promotion for the specific killing effect of PBMCs on target cells by heterodimers (EC50, pM); F98-EGFR cells, LDH assay; IgFD-30(CH1)” value with EGFR on F98-EGFR cells [3] worked out at 435 pM. The “Promotion for the specific killing effect of PBMCs on target cells by heterodimers (EC50, pM); F98-EGFR cells, LDH assay; IgFD-30(ProA)” value in the experiment with EGFR on F98-EGFR cells [3] turned out to be 651 pM.

The values are drawn from patent US20220089722A1 (NANTONG YICHEN BIOPHARMA, published 2022).
